One block for each substance: values may come before it.
Tests used:
[1] = molecular target: wild type ACKR3 fused with Renilla luciferase (RLuc) on the C-terminal tail (human) (UniProt P25106)
[2] = molecular target: β-arrestin2 tagged with the mVenus fluorescent protein (UniProt P32121); assay: BRET; conditions: CXCL12 (100 nM), HEK293T cells, read off a plot
[3] = molecular target: β-arrestin1 tagged with the eYFP fluorescent protein (UniProt P49407); assay: BRET; conditions: CXCL12 (100 nM), HEK293T cells, read at last time point (~56 min), read off a plot

UniProt P25106, sequence (P25106 whole entry, the tested form may be a part): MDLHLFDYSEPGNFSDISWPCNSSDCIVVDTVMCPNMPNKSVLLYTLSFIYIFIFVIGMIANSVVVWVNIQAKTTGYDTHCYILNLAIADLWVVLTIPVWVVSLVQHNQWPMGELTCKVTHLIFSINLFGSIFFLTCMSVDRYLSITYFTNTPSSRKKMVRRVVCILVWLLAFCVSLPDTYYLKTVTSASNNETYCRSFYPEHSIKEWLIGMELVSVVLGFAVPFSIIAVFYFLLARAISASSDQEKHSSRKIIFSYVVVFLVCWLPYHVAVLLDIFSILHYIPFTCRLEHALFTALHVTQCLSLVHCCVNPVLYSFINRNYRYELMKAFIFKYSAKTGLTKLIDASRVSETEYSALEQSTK
CXCL12, sequence (P48061 22-93): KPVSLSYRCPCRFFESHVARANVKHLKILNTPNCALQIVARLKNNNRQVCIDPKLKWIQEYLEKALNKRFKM

pEC50 of CXCL12 for ACKR3-RLuc translocation to Rab5a-mVenus (early endosome sensor, BRET, HEK293T) [1]: 9.1 pEC50
pEC50 of CXCL12 for ACKR3-RLuc translocation to Rab11-mVenus (recycling endosome sensor, BRET, HEK293T) [1]: 9.1 pEC50
pEC50 of CXCL12 for GRK2-mVenus recruitment to ACKR3-RLuc (BRET, HEK293T) [1]: 8.2 pEC50
pEC50 of CXCL12 for GRK3-mVenus recruitment to ACKR3-RLuc (BRET, HEK293T) [1]: 8.1 pEC50
pEC50 of CXCL12 for GRK5-mVenus recruitment to ACKR3-RLuc (BRET, HEK293T) [1]: 8.3 pEC50
pEC50 of CXCL12 for loss of ACKR3-RLuc co-localization with K-Ras-mVenus (cell membrane sensor, BRET, HEK293T) [1]: 8.9 pEC50
pEC50 of CXCL12 for β-arrestin1-eYFP recruitment to ACKR3-RLuc (BRET, HEK293T) [1]: 8.1 pEC50
pEC50 of CXCL12 for β-arrestin2-mVenus recruitment to ACKR3-RLuc (BRET, HEK293T) [1]: 8.2 pEC50
Substance: CXCL12 (from UniProt P48061 22-93) (ligand)

response ([2]; read at last time point (~56 min), parent: est. 1.17): 1.14 fold vehicle
response ([3]; parent: est. 1.09): 1.01 fold vehicle
Substance: wild type ACKR3 fused with Renilla luciferase (RLuc) on the C-terminal tail (from UniProt P25106) ST/A 350.355

response ([2]; read at last time point (~33 min), parent: est. 1.13): 1.02 fold vehicle
response ([3]; parent: est. 1.11): 1 fold vehicle
Substance: wild type ACKR3 fused with Renilla luciferase (RLuc) on the C-terminal tail (from UniProt P25106) full ST/A
